This assay deals with importin-α/β carrier protein complex (α/β importin heterodimer). The assay is described as follows: MST; importin β labelled with Cy3; α/β importin heterodimers at equimolar 50 nM; MNT serially diluted from 1 µM (MNT_(N-EGF)) or 4 µM (MNT_(N-affibody), MNT_(C-EGF)); 20 mM HEPES pH 7.4, 110 mM KCl, 5 mM NaHCO3, 5 mM MgCl2, 0.1 mM CaCl2, 1 mM EGTA, 1 mM DTT; Monolith NT.115.

Usually Kd stands for the concentration at which binding is half-saturated.

Consider “EGF-6His-DTox-HMP-NLS modular nanotransporter (MNT_(N-EGF))”, for which the Kd was 15.8 nM.
With “6His-DTox-HMP-NLS-EGF modular nanotransporter (MNT_(C-EGF))” the figure was 127 nM.

The values above are taken from article PMC7064642.
